From publication doi:10.1101/2025.01.24.634737

Experiments:
[1] = target: microtubules grown from purified bovine brain tubulin (bovine) (UniProt Q6B856); test: optical trap rupture force assay; kinetochores purified in the presence of benzonase, on anti-penta-His beads (via Dsn1-6His-3M3DK), attached to the growing tips of coverslip-anchored microtubules; force ramp 0.25 pN/s until detachment; BRB80, 1 mM GTP, 23 °C
[2] = target: microtubules grown from purified bovine brain tubulin (bovine) (UniProt Q6B856); test: optical trap rupture force assay; untreated purified kinetochores on anti-penta-His beads (via Dsn1-6His-3M3DK), attached to the growing tips of coverslip-anchored microtubules; force ramp 0.25 pN/s until detachment; BRB80, 1 mM GTP, 23 °C

Chain of UniProt Q6B856 (Q6B856 whole entry, looked up): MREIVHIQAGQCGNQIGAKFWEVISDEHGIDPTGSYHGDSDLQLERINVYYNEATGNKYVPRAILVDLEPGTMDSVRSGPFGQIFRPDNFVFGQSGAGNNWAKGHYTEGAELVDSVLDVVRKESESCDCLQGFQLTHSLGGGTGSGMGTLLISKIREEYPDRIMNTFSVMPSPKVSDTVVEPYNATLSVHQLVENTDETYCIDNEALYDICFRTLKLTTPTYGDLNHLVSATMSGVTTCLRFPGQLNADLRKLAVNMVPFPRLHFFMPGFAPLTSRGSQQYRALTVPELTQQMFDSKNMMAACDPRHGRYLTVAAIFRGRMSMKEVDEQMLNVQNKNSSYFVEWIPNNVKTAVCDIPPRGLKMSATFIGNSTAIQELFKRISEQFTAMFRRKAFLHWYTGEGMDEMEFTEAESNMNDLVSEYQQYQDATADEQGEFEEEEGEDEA

median rupture force [1]	median rupture force [2]	Substance
6.4 pN	7.5 pN	native K. marxianus kinetochore particles purified via Dsn1-6His-3M3DK (from UniProt A0ABX6F0Z3 1-547) (complex)
	7.2	native S. cerevisiae kinetochore particles purified via Dsn1-6xHis-3xM3DK (from UniProt P40568 1-576) (complex)
